From patent US7842469B2, “Bioluminescence resonance energy transfer (BRET) systems and methods of use thereof” (Stanford University, priority 2005, dated 2010)

Columns and labels:
[1] = Luciferase activity of purified RLuc mutants (light output integrated over 10 s, luminometer); assay type: biochemical; settings: relative to native enzyme; for Activity (relative to RLuc) bc: benzyl-coelenterazine; for Activity (relative to RLuc) bdc: bisdeoxycoelenterazine; for Activity (relative to RLuc) cp: coelenterazine-cp; for Activity (relative to RLuc) n: coelenterazine-n; for Activity (relative to RLuc) native: native coelenterazine
Summary of the method: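 Purified RLuc mutant sample, diluted in EB with 1% HSA, added to room-temperature 100 mM sodium phosphate (pH 7), then 1 μl of 0.5 μg/μl coelenterazine or analog mixed in manually. Light read for 10 s starting ~4 s after luciferin addition. Luminometer calibrated to photons/s against luminol standard in DMSO.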

[2] = Serum stability in mouse serum at 37° C.; assay type: in vitro ADME; settings: mouse serum, 37° C., mono-exponential fit
Summary of the method: (§1)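 Luciferase diluted into mouse or rat serum at 37° C; aliquots withdrawn over time for activity, half-life from mono-exponential decay fit. Emission spectra recorded at ambient temperature with a grating spectrometer and cooled CCD detector.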

[3] = Serum stability in rat serum at 37° C.; assay type: in vitro ADME; settings: mono-exponential fit
Summary of the method: as §1

[4] = Bioluminescence emission spectra; assay type: physicochemical; settings: emission spectrum with native coelenterazine
Summary of the method: as §1

[5] = Quantum yield measurements; assay type: biochemical; settings: for Quantum Yield (%) bc: benzyl-coelenterazine; for Quantum Yield (%) bdc: bisdeoxycoelenterazine; for Quantum Yield (%) cp: coelenterazine-cp; for Quantum Yield (%) n: coelenterazine-n; for Quantum Yield (%) native: native coelenterazine
Protocol: For quantum yield measurements, separate 1 μl drops of protein (about 2 pm) and substrate (0.2 pm) were placed in a tube, 100 μl of 100 mM sodium phosphate buffer (pH 7) was injected by the luminometer to mix, and the total light output was integrated (generally 5-10 min). For coelenterazine-n, the protein amount was increased 10 fold and the acquisition time lengthened to insure the reaction approached completion.

| Molecule | Activity (relative to RLuc) bc [1] | Activity (relative to RLuc) bdc [1] | Activity (relative to RLuc) cp [1] | Activity (relative to RLuc) n [1] | Activity (relative to RLuc) native [1] | Serum τ1/2 (h) mouse [2] [h] | Serum τ1/2 (h) rat [3] [h] | Wavelength (nm) mean [4] [nm] | Wavelength (nm) peak [4] [nm] | Quantum Yield (%) bc [5] [%] | Quantum Yield (%) bdc [5] | Quantum Yield (%) cp [5] [%] | Quantum Yield (%) n [5] [%] | Quantum Yield (%) native [5] [%] |
| --- | --- | --- | --- | --- | --- | --- | --- | --- | --- | --- | --- | --- | --- | --- |
| A55T/C124A: RLuc mutant A55T/C124A (protein) MASKVYDPEQRKRMITGPQWWARCKQMNVLDSFINYYDSEKHAENAVIFLHGNATSSYLWRHVVPHIEPVARCIIPDLIGMGKSGKSGNGSYRLLDHYKYLTAWFELLNLPKKIIFVGHDWGAALAFHYSYEHQDKIKAIVHAESVVDVIESWDEWPDIEEDIALIKSEEGEKMVLENNFFVETMLPSKIMRKLEPEEFAAYLEPFKEKGEVRRPTLSWPREIPLVKGGKPDVVQIVRNYNAYLRASDDLPKMFIESDPGFFSNAIVEGAKKFPNTEFVKVKGLHFSQEDAPDEMGKYIKSFVERVLKNEQ | 1.2 | 2.4 | 0.58 | 1.4 | 1.7 | 30 | 29 | 504 | 486 | 3.9 ± 0.1 | (1.0 ± 0.9) × 10^−3% | 4.5 ± 0.1 | 5.7 ± 0.1 | 5.7 ± 0.2 |
| C124A/K136R: RLuc mutant C124A/K136R (protein) MASKVYDPEQRKRMITGPQWWARCKQMNVLDSFINYYDSEKHAENAVIFLHGNAASSYLWRHVVPHIEPVARCIIPDLIGMGKSGKSGNGSYRLLDHYKYLTAWFELLNLPKKIIFVGHDWGAALAFHYSYEHQDRIKAIVHAESVVDVIESWDEWPDIEEDIALIKSEEGEKMVLENNFFVETMLPSKIMRKLEPEEFAAYLEPFKEKGEVRRPTLSWPREIPLVKGGKPDVVQIVRNYNAYLRASDDLPKMFIESDPGFFSNAIVEGAKKFPNTEFVKVKGLHFSQEDAPDEMGKYIKSFVERVLKNEQ | 2.1 | 2.6 | 1.9 | 1.9 | 2.5 ± 0.3 | 12 | 11 | 498 | 482 | 3.3 ± 0.1 | (7.1 ± 0.3) × 10^−3% | 5.1 ± 0.1 | 6.0 ± 0.1 | 5.4 ± 0.1 |
| C124A/S130A: RLuc mutant C124A/S130A (protein) MASKVYDPEQRKRMITGPQWWARCKQMNVLDSFINYYDSEKHAENAVIFLHGNAASSYLWRHVVPHIEPVARCIIPDLIGMGKSGKSGNGSYRLLDHYKYLTAWFELLNLPKKIIFVGHDWGAALAFHYAYEHQDKIKAIVHAESVVDVIESWDEWPDIEEDIALIKSEEGEKMVLENNFFVETMLPSKIMRKLEPEEFAAYLEPFKEKGEVRRPTLSWPREIPLVKGGKPDVVQIVRNYNAYLRASDDLPKMFIESDPGFFSNAIVEGAKKFPNTEFVKVKGLHFSQEDAPDEMGKYIKSFVERVLKNEQ | 1.4 | 2.6 | 1.7 | 1.4 | 1.7 | 18 | 14 | 498 | 482 | 3.4 ± 0.04 | (6.7 ± 0.3) × 10^−3% | 5.0 ± 0.1 | 5.9 ± 0.2 | 5.3 ± 0.1 |
